Data on one molecule can be found in patent US20190106460A1, “BINDING INHIBITORS OF THE BETA. TRANSDUCIN REPEAT-CONTAINING PROTEIN” (priority 2011, published 2019).

Like-named read-outs stand apart in the source and are kept apart here. Starred links: 1 amine or outer side, 2 acyl side, 3 side chain; linkers in the order of their positions; H or OH if unused. Suc = O=C(CCC(=O)[*:2])[*:1]

Test [1] deals with HisβTrCP/Skp1 and HisβTrCP/GSTSkp1 (immobilised on NTA Biacore chip), Q9Y297. Briefly: SPR, Biacore T200, βTrCP/Skp1 immobilised. For orientation: Surface plasmon resonance follows binding to a sensor surface in real time, without labels.
Test [2] addresses βTrCP (tag cleaved and complexed with Skp1), Q9Y297. Put plainly: FP competition vs fluorescein-IκB peptide.
Test [3] shares this target. Put plainly: FP competition vs fluorescein-IκB peptide. This is another data set of the same source.
The next test concerns the target T1, Fbw7, Q969H0.
T1 chain: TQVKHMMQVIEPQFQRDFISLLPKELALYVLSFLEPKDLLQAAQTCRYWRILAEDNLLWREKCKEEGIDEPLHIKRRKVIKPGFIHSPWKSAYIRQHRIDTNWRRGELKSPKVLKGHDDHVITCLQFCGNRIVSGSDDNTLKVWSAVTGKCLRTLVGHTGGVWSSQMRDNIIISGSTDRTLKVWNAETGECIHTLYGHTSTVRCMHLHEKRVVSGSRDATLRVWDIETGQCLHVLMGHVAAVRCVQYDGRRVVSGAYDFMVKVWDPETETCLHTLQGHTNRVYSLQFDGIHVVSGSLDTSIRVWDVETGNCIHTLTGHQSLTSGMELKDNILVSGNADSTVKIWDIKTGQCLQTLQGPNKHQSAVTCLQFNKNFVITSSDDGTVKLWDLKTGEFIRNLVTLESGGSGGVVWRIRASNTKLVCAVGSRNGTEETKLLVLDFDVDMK
Put plainly: cell-based or functional assay.

The target in a further test is Skp2, Q13309. Briefly: cell-based or functional assay.
Chain of Skp2, Q13309 (Q13309 whole entry): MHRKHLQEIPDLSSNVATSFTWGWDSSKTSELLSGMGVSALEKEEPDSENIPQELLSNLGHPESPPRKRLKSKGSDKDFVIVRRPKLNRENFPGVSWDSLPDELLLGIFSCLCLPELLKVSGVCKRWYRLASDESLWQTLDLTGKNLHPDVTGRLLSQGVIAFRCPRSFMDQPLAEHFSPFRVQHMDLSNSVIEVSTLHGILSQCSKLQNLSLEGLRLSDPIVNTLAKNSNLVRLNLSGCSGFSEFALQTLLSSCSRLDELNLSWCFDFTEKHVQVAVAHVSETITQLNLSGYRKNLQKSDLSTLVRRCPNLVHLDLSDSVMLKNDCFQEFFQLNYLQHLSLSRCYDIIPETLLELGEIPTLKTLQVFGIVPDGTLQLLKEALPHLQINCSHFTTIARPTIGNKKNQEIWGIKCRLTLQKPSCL

Chain of βTrCP (tag cleaved and complexed with Skp1), Q9Y297 (Q9Y297 175-605, chain 1 of 2): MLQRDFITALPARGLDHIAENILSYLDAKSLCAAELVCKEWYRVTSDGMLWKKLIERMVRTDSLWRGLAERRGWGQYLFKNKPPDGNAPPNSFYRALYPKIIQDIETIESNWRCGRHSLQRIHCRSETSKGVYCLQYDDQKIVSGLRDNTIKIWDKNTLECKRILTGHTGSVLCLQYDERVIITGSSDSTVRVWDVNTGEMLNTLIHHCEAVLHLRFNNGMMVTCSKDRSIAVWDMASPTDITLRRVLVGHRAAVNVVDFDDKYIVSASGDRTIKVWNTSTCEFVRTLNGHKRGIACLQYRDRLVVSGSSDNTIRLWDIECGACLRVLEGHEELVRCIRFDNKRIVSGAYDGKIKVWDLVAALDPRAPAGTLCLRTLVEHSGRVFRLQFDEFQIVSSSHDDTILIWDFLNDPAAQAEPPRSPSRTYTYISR
Chain of βTrCP (tag cleaved and complexed with Skp1), Q9Y297 (P63208 whole entry, chain 2 of 2, further chain): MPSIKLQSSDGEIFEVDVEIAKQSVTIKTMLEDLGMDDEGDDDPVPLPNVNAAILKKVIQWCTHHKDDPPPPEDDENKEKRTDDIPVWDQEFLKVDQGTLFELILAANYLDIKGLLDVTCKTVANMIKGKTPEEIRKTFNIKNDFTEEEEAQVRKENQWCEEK
Chain of HisβTrCP/Skp1 and HisβTrCP/GSTSkp1 (immobilised on NTA Biacore chip), Q9Y297 (Q9Y297 175-605, chain 1 of 2): as the sequence (Q9Y297 175-605, chain 1 of 2) above
Chain of HisβTrCP/Skp1 and HisβTrCP/GSTSkp1 (immobilised on NTA Biacore chip), Q9Y297 (P63208 whole entry, chain 2 of 2, further chain): as the sequence (P63208 whole entry, chain 2 of 2, further chain) above

B1: Suc-EGYFE-NH2 (peptide)
peptide: Suc-EGYFE-NH2
SMILES: NC(=O)[C@H](CCC(=O)O)NC(=O)[C@H](Cc1ccccc1)NC(=O)[C@H](Cc1ccc(O)cc1)NC(=O)CNC(=O)[C@H](CCC(=O)O)NC(=O)CCC(=O)O
As a reminder, the Kd is the concentration at which binding is half-saturated. A lower Kd goes with a tighter complex. Broadly, the IC50 is the concentration that gives 50% inhibition. For the molecule B1, the equilibrium dissociation constant (Kd) in test [1] was 0.537 µM. The same molecule gave an IC50 in test [2] of 1.04 µM. The same molecule registered an IC50 in test [3] of 1 µM. Also, in the test with Fbw7, Q969H0, the % Inhibition Fbw7 @ 10 µM was 0% and the % Inhibition Fbw7 @ (100 µM) worked out at 0%. In the test with Skp2, Q13309, the % Inhibition Skp2 @ 10 µM amounted to 11% and the % Inhibition Skp2 @ (100 µM) stood at 28%.
